5 molecules from patent publication US20190016826A1 (Genentech, published 2019) can be followed below.

For assay [1], the target named is T1, HuHtrA1_PD(V201A) (human, UniProt F1N152 168-386 (bovine entry)).
T1 construct: Alanine mutant of HuHtrA1_PD; also called HuHtrA1 mutant V201A; not shown: thrombin cleavage site
T1 chain: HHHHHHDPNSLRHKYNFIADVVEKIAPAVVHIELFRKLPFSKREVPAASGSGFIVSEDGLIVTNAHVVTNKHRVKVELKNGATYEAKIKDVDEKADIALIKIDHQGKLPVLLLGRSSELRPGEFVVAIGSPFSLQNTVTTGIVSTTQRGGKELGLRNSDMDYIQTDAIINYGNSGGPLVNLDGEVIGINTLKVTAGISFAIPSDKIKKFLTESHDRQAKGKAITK
The assay is described as follows: binding ELISA, plate coated with mutant at 1 ug/ml, 20 min incubation. (An ELISA detects its analyte on a solid surface through an enzyme-linked reagent.)

Assay [2] has as its target T2, HuHtrA1_PD(E247A) (human, UniProt F1N152 168-386 (bovine entry)).
T2 construct: Alanine mutant of HuHtrA1_PD; also called HuHtrA1 mutant E247A; not shown: thrombin cleavage site
T2 chain: T1 chain with A47V, E93A
The assay is described as above.

For assay [3], the target named is T3, HuHtrA1_PD(H220A) (human, UniProt F1N152 168-386 (bovine entry)).
T3 construct: Alanine mutant of HuHtrA1_PD; also called HuHtrA1 mutant H220A; not shown: thrombin cleavage site
T3 chain: T1 chain with A47V, H66A
The assay is described as above.

The target of assay [4] is T4, HuHtrA1_PD(K243A) (human, UniProt F1N152 168-386 (bovine entry)).
T4 construct: Alanine mutant of HuHtrA1_PD; also called HuHtrA1 mutant K243A; not shown: thrombin cleavage site
T4 chain: T1 chain with A47V, K89A
Described as above.

The target in assay [5] is T5, HuHtrA1_PD(T223A) (human, UniProt F1N152 168-386 (bovine entry)).
T5 construct: Alanine mutant of HuHtrA1_PD; also called HuHtrA1 mutant T223A; not shown: thrombin cleavage site
T5 chain: T1 chain with A47V, T69A
The assay is described as above.

Assay [6] concerns the target T6, HuHtrA1_PD(K225A) (human, UniProt F1N152 168-386 (bovine entry)).
T6 construct: Alanine mutant of HuHtrA1_PD; also called HuHtrA1 mutant K225A; not shown: thrombin cleavage site
T6 chain: T1 chain with A47V, K71A
Described as above.

Assay [7] has as its target T7, Full length human HtrA1 (HuHtrA1) (Q23-P480), N-terminal His6 tag (human, UniProt Q92743 23-480). Kind of assay: cell-based or functional assay.
Assay [8] deals with T8, Full length murine HtrA1 (MuHtrA1) (P24-P480), N-terminal His6 tag (murine, UniProt Q9R118 24-480). Kind of assay: cell-based or functional assay.
T8 sequence (Q9R118 other isoform, or with tags, fused parts or gaps): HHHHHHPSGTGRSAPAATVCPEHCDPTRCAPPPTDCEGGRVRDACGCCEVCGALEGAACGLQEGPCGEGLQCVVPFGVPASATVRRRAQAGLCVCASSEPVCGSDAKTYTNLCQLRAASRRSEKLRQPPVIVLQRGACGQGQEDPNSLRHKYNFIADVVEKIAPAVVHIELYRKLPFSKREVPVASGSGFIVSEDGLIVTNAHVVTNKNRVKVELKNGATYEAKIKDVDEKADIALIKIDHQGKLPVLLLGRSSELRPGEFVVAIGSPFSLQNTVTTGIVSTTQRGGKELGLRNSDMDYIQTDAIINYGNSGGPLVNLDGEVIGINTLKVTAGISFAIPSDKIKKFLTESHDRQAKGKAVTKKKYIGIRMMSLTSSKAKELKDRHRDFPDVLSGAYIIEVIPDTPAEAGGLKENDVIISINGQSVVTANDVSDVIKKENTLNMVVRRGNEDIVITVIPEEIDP
Assay [9] addresses T7, Full length human HtrA1 (HuHtrA1) …. Kind of assay: phage competition ELISA: Fab-phage pre-incubated with serially diluted soluble HuHtrA1 (x axis), unbound phage captured on HuHtrA1-coated plate. The protocol: (§1) MAXISORP™ microtiter plates were coated with HuHtrA1 at 2 μg/ml in PBS for 2 hr at RT and then blocked with PBST buffer for another hour at RT. Purified phage from culture supernatants were incubated with serially diluted HuHtrA1 or MuHtrA1 in PBST buffer in a tissue-culture microtiter plate for an hour, after which 80 μl of the mixture was transferred to the HuHtrA1-coated wells for 15 minutes to capture unbound phage. The plate was washed with PBT buffer, and HRP-conjugated anti-M13 (Amersham Pharmacia Biotech) was added (1:5000 in PBST buffer) for one hour. The plate was washed with PBT buffer and developed by adding tetramethylbenzidine substrate (Kirkegaard and Perry Laboratories, Gaithersburg, Md.). The absorbance at 450 nm was plotted as a function of HuHtrA1 or MuHtrA1 concentration in solution to determine phage IC₅₀.

Assay [10] shares this target. The assay is described as follows: SPR (BIAcore T100), single-cycle kinetics, biotinylated human HtrA1 captured on streptavidin, Fab in solution. From the text:
(§2) To determine the binding affinity of HtrA1 antibodies by single cycle kinetics, Surface Plasmon Resonance (SRP) measurement with a BIAcore™ T100 instrument was used. Briefly, a series S sensor chip CM5 was activated with EDC and NHS reagents according to the supplier's instructions, and streptavidin (Pierce) was coupled to achieve approximately 2000 response units (RU), followed by blocking un-reacted groups with 1M ethanolamine.
(§3) For kinetics measurements, biotinylated human or murine HtrA1 was first injected at 10 ul/min flow rate to capture approximately 100 RU at 3 different flow cells (FC), except for FC1 (reference), and then 5-fold serial dilutions of anti-HtrA1 Fab in HBS-P buffer (0.01M HEPES pH 7.4, 0.15M NaCl, 0.005% surfactant P20) from low (0.48 nM) to high (300 nM) [5 points] were injected (flow rate: 30 μl/min) one after the other in the same cycle with no regeneration between injections. The sensorgram was recorded and subject to reference and buffer subtraction before evaluation by BIAcore™ T100 Evaluation Software (version 2.0). Association rates (km) and dissociation rates (koff) were calculated using a simple one-to-one Langmuir binding model. The equilibrium dissociation constant (Kd) was calculated as the ratio koff/kₒₙ.

The target of assay [11] is T8, Full length murine HtrA1 (MuHtrA1) …. Kind of assay: SPR (BIAcore T100), single-cycle kinetics, biotinylated murine HtrA1 captured on streptavidin, Fab in solution.
Text: as §2, §3
For orientation: In SPR one partner is held on a chip, and binding of the other changes the refractive index at the surface.

Assay [12] concerns the target T7, Full length human HtrA1 (HuHtrA1) …. Kind of assay: cell-based or functional assay. The source holds these as a separate data set.
The target in assay [13] is Protease domain of human HtrA1 (HuHtrA1_PD), residues D161-K379 (human, UniProt F1N152 168-386 (bovine entry)). The assay is described as follows: cell-based or functional assay.
Chain of Protease domain of human HtrA1 (HuHtrA1_PD), residues D161-K379 (F1N152 other isoform, or with tags, fused parts or gaps): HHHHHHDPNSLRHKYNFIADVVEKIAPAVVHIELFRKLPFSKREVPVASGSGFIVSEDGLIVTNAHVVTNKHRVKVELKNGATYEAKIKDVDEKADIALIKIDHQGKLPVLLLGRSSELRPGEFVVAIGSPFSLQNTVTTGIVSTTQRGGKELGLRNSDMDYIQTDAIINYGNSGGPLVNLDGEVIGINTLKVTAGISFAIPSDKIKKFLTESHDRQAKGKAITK
The target of assay [14] is T8, Full length murine HtrA1 (MuHtrA1) …. Kind of assay: phage competition ELISA: Fab-phage pre-incubated with serially diluted soluble MuHtrA1 (x axis), unbound phage captured on HuHtrA1-coated plate. The protocol: as §1

Usually Kd stands for a measure of binding affinity in units of concentration. By koff is commonly meant the rate constant with which the complex falls apart. Higher therefore signals fast dissociation. A word on the kon: it is the second-order rate constant of association. A higher kon goes with fast association.

Substitutions are numbered along the chain they refer to.

T7 sequence (Q92743 other isoform, or with tags, fused parts or gaps): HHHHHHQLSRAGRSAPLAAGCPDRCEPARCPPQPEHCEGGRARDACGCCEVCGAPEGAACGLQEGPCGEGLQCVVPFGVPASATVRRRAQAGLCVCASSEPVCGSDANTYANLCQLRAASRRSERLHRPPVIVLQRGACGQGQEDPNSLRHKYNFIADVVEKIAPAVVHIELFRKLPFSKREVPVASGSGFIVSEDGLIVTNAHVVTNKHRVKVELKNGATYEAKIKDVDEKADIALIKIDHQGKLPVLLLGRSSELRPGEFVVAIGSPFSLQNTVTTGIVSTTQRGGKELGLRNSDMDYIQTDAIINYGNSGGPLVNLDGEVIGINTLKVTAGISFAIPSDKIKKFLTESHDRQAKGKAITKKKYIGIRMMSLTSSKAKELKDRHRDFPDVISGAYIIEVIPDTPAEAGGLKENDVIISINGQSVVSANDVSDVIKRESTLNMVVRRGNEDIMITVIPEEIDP

B1: IgG94 (anti-HtrA1 antibody YW505.94, IgG format) (antibody, V domains shown)
VH: EVQLVESGGGLVQPGGSLRLSCAASGFNISGYYIHWVRQAPGKGLEWVGWIDPYGGDTNYADSVKGRFTISADTSKNTAYLQMNSLRAEDTAVYYCARGTFLTSWGHYFDYWGQGT
VL: DIQMTQSPSSLSASVGDRVTITCRASQDVSTAVAWYQQKPGKAPKLLIYSASFLYSGVPSRFSGSGSGTDFTLTISSLQPEDFATYYCQQSYTTPPTFGQGTKVEIKR
notes: The VH as printed ends at WGQGT; also called antibody 94; Ab94
Regarding B1, the “fold reduction in binding (alanine mutant)” value in [1], in [2], in assay [3], in assay [4], in [5] and in [6] was at least 5 fold throughout. Moreover, the “IC50, inhibition of BODIPY FL casein hydrolysis” value in assay [7] came to 8.3 nM; in assay [8], 5.4 nM. Moreover, the “IC50, inhibition of H2-Opt peptide hydrolysis (FRET assay)” value in assay [7] was 1.8 nM. In addition, the “fold increase in inhibitory potency of IgG94 vs. Fab94” value in [7] was around 16 fold.

B2: YW505.94a Fab (Fab, V domains shown)
VH: B1 VH with N28S
VL: B1 VL
notes: Tested as Fab
Regarding B2, in assay [9], the “IC50 (read off the curve)” value is around 6 nM. Moreover, in assay [10], the dissociation constant (Kd) was found to be 55 nM, the koff was 0.0448 s⁻¹ and the kon came out at 813000 M⁻¹ s⁻¹. In assay [11], this molecule came in with a Kd of 58 nM, a koff of 0.0856 s⁻¹ and a kon of 1.48e+06 M⁻¹ s⁻¹.

B3: YW505.94a.28 IgG (antibody, V domains shown)
VH: B1 VH with N28S
VL: B1 VL with D28S, V29I, S30N, A32Y, V33L, Y92D, T93D
As for B3, the “IC50, inhibition of H2-Opt hydrolysis (FRET assay, 1.0 nM HuHtrA1)” value in [12] came to 0.335 nM. Further, in [13], the “IC50, inhibition of H2-Opt hydrolysis (FRET assay, 1.5 nM HuHtrA1_PD)” value amounted to 0.229 nM.

B4: YW505.94a.54 Fab (Fab, V domains shown)
VH: B1 VH with N28S
VL: B1 VL with D28V, S30G, T31N, A32Y, V33L, Y92D, T93D, T94H
With B4, the “IC50 (read off the curve)” value in [14] was around 2 nM. Further, the “IC50 (read off the curve)” value in [9] is around 0.5 nM. In assay [10], this molecule came in with a Kd of 2.6 nM, a koff of 0.00784 s⁻¹ and a kon of 2.97e+06 M⁻¹ s⁻¹. Also, in assay [11], the dissociation constant (Kd) was 1.6 nM, the off-rate (koff) came to 0.00455 s⁻¹ and the kon is 2.82e+06 M⁻¹ s⁻¹.

B5: YW505.94a.28 Fab (Fab, V domains shown)
VH: B1 VH with N28S
VL: B1 VL with D28S, V29I, S30N, A32Y, V33L, Y92D, T93D
With B5, in assay [10], binding was characterised by a dissociation constant (Kd) of 3.4 nM, the koff is 0.00574 s⁻¹ and the kon came out at 1.69e+06 M⁻¹ s⁻¹. In [11], this molecule gave a Kd of 4.6 nM, a koff of 0.0093 s⁻¹ and a kon of 2.02e+06 M⁻¹ s⁻¹. In addition, in [12], the “IC50, inhibition of H2-Opt hydrolysis (FRET assay, 1.0 nM HuHtrA1)” value was determined as 1.95 nM. For the same molecule, the “IC50, inhibition of H2-Opt hydrolysis (FRET assay, 1.5 nM HuHtrA1_PD)” value in [13] stood at 2.03 nM.
